Test [1] addresses T1, rHuman Erythropoietin R/Fc Chimera, CF (R&D Systems Cat#963-ER) (human, UniProt P19235 25-250).
T1 construct: Bought reagent; also called EPO R; Epo R/Fc
T1 sequence (looked up): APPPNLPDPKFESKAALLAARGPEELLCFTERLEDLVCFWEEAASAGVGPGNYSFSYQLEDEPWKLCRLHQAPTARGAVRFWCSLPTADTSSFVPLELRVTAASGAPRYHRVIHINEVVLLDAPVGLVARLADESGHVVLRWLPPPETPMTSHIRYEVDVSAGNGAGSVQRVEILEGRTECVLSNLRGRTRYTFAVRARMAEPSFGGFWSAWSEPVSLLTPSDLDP
Description: ECL multispot (MSD), antigen spotted, Fab in solution; blank spot 356.

Test [2] has as its target T2, rHuman CD44/Fc Chimera, CF (R&D Systems Cat#3660-CD) (human, UniProt P16070 21-220).
T2 construct: Bought reagent
The test is described as above.

Test [3] concerns the target T3, rHuman IGF-1 sR (insulin-like growth factor-1 soluble receptor), CF (R&D Systems Cat#391-GR) (human, UniProt P08069 31-932).
T3 construct: Bought soluble receptor
Described as above.

Test [4] addresses T4, rHuman EGF R/Fc Chimera, CF (R&D Systems Cat#344-ER) (human, UniProt P00533 25-645).
T4 construct: Bought reagent
The description is as above.

For test [5], the target named is T5, Recombinant Human DLL4 (R&D Systems Cat#1506-D4/CF) (human, UniProt Q9NR61 27-524).
T5 construct: Bought recombinant protein; also called delta-like protein 4; rHuman DLL4
Described as above.

Test [6] has as its target T6, rHuman Notch-1/Fc Chimera, CF (R&D Systems Cat#3647-TK) (human, UniProt P46531 19-526).
T6 construct: Bought reagent
The test is described as above.

In test [7] the target is T7, rHuman HGF R/c-MET/Fc Chimera, CF (R&D Systems Cat#358-MT/CF) (human, UniProt P08581 25-932).
T7 construct: Bought reagent; also called HGF R/Fc
The description is as above.

Test [8] has as its target T8, rHuman ErbB2/Fc Chimera, CF (R&D Systems Cat#1129-ER) (human, UniProt P04626 23-652).
T8 construct: Bought reagent
The description is as above.

The target in test [9] is T9, rHuman P-Cadherin/Fc Chimera, CF (R&D Systems Cat#861-PC) (human, UniProt P22223 108-654).
T9 construct: Bought reagent
Described as above.

In test [10] the target is T1, rHuman Erythropoietin R/Fc Chimera, CF …. Briefly: ECL multispot (MSD), antigen spotted, Fab in solution; blank spot 289.
Test [11] deals with T2, rHuman CD44/Fc Chimera, CF (R&D Systems …). The test is described as above.
Test [12] deals with T3, rHuman IGF-1 sR (insulin-like growth …). Described as above.
Test [13] concerns the target T4, rHuman EGF R/Fc Chimera, CF (R&D …). Described as above.
For test [14], the target named is T5, Recombinant Human DLL4 (R&D Systems …). The description is as above.
In test [15] the target is T6, rHuman Notch-1/Fc Chimera, CF (R&D …). The test is described as above.
The target of test [16] is T7, rHuman HGF R/c-MET/Fc Chimera, CF (R&D …). The test is described as above.
The target of test [17] is T8, rHuman ErbB2/Fc Chimera, CF (R&D …). Described as above.
Test [18] has as its target T9, rHuman P-Cadherin/Fc Chimera, CF (R&D …). The test is described as above.
Test [19] addresses T1, rHuman Erythropoietin R/Fc Chimera, CF …. Description: ECL multispot (MSD), antigen spotted, Fab in solution; blank spot 198.
Test [20] has as its target T2, rHuman CD44/Fc Chimera, CF (R&D Systems …). Described as above.
Test [21] has as its target T3, rHuman IGF-1 sR (insulin-like growth …). Described as above.
Test [22] concerns the target T4, rHuman EGF R/Fc Chimera, CF (R&D …). Described as above.
Test [23] has as its target T5, Recombinant Human DLL4 (R&D Systems …). The test is described as above.
In test [24] the target is T6, rHuman Notch-1/Fc Chimera, CF (R&D …). The description is as above.
For test [25], the target named is T7, rHuman HGF R/c-MET/Fc Chimera, CF (R&D …). The test is described as above.
In test [26] the target is T8, rHuman ErbB2/Fc Chimera, CF (R&D …). Described as above.
In test [27] the target is T9, rHuman P-Cadherin/Fc Chimera, CF (R&D …). Described as above.
Test [28] addresses T1, rHuman Erythropoietin R/Fc Chimera, CF …. Briefly: ECL multispot (MSD), antigen spotted, Fab in solution; blank spot 272.
For test [29], the target named is T2, rHuman CD44/Fc Chimera, CF (R&D Systems …). The description is as above.
The target in test [30] is T3, rHuman IGF-1 sR (insulin-like growth …). Described as above.
Test [31] concerns the target T4, rHuman EGF R/Fc Chimera, CF (R&D …). The description is as above.
In test [32] the target is T5, Recombinant Human DLL4 (R&D Systems …). The description is as above.
Test [33] has as its target T6, rHuman Notch-1/Fc Chimera, CF (R&D …). The description is as above.
The target in test [34] is T7, rHuman HGF R/c-MET/Fc Chimera, CF (R&D …). Described as above.
The target of test [35] is T8, rHuman ErbB2/Fc Chimera, CF (R&D …). The test is described as above.
Test [36] addresses T9, rHuman P-Cadherin/Fc Chimera, CF (R&D …). The description is as above.

Residue numbers refer to the chain shown, from its start. In names and notes the source's numbering stands.

T7 sequence (P08581 25-932, change not shown): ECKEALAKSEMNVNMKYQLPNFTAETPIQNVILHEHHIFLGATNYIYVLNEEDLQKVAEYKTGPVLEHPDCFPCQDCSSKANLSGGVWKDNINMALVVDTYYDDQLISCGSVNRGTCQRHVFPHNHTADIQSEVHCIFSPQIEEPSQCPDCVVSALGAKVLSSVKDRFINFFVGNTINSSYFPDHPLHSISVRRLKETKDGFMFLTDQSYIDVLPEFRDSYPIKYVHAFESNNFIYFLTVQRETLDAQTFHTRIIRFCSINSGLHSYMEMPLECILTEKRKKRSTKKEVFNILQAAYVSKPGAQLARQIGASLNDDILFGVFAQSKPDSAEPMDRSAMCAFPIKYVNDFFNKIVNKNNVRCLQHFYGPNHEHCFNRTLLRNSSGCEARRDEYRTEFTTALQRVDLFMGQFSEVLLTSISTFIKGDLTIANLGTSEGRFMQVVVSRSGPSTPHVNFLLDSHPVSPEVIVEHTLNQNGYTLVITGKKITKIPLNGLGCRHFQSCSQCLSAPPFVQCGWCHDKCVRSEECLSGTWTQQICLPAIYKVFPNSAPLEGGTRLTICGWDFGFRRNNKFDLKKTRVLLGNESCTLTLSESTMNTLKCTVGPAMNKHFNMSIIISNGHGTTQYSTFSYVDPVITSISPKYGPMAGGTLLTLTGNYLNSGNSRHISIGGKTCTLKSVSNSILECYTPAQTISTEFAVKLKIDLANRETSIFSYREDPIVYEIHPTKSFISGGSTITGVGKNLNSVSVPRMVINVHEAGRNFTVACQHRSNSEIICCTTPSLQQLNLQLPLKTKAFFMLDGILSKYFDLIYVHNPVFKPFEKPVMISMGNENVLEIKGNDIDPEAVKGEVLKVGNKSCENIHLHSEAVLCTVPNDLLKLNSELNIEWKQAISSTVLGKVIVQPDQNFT

B1: Fab VH1-46_IGHD6-6*01_IGHJ1*01 S102A/S103P/S104F/H111F (APFF) & L6_IGKJ1*01 S30A (Fab, V domains shown)
VH: QVQLVQSGAEVKKPGASVKVSCKASGYTFTSYYMHWVRQAPGQGLEWMGIINPSGGSTSYAQKFQGRVTMTRDTSTSTVYMELSSLRSEDTAVYYCAREEYAPFSAEYFQFWGQGTLVTVSS
VL: EIVLTQSPATLSLSPGERATLSCRASQSVASYLAWYQQKPGQAPRLLIYDASNRATGIPARFSGSGSGTDFTLTISSLEPEDFAVYYCQQRSNWPPWTFGQGTKVEIKR
notes: Tested as Fab made in E. coli: VH joined to CH1 from Plasmid A (His6 and Flag tags), VL joined to kappa CL from Plasmid C; also called APFF / S30A
For the molecule B1, the ECL signal in test [1] came to 561; in test [2], 390; in test [3], 400; in test [4], 322; in test [5], 184000; in [6] it was 380. Also, the ECL signal in [7] came out at 414; in test [8] it was 251; in test [9] it was 454.

B2: Fab VH1-46_IGHD6-6*01_IGHJ1*01 S102A/S103P/S104F/H111F (APFF) & L6_IGKJ1*01 S30W (Fab, V domains shown)
VH: B1 VH
VL: B1 VL with A30W
notes: Tested as Fab made in E. coli: VH joined to CH1 from Plasmid A (His6 and Flag tags), VL joined to kappa CL from Plasmid C; also called APFF / S30W
With B2, the ECL signal in test [10] was determined as 542; in test [11] it was 500; in test [12], 471; in test [13], 398; in test [14], 191000; in test [15], 372. Also, the ECL signal in test [16] amounted to 399; in test [17] it was 289; in test [18], 342.

B3: Fab VH1-46_IGHD6-6*01_IGHJ1*01 S102A/S103P/S104F/H111F (APFF) & L6_IGKJ1*01 S30Q (Fab, V domains shown)
VH: B1 VH
VL: B1 VL with A30Q
notes: Tested as Fab made in E. coli: VH joined to CH1 from Plasmid A (His6 and Flag tags), VL joined to kappa CL from Plasmid C; also called APFF / S30Q
Turning to B3, the ECL signal was found to be 423 in [19]; 400 in [20]; 342 in [21]; 353 in test [22]; 203000 in [23]; 243 in test [24]. Further, the ECL signal in test [25] was found to be 339; in [26] it was 262; in test [27], 298.

B4: Fab VH1-46_IGHD6-6*01_IGHJ1*01 S102A/S103P/S104F/H111F (APFF) & L6_IGKJ1*01 S30G (Fab, V domains shown)
VH: B1 VH
VL: B1 VL with A30G
notes: Tested as Fab made in E. coli: VH joined to CH1 from Plasmid A (His6 and Flag tags), VL joined to kappa CL from Plasmid C; also called APFF / S30G
Consider B4, for which the ECL signal came out at 485 in test [28]; 427 in test [29]; 393 in test [30]; 387 in test [31]; 180000 in [32]; 382 in [33]. Further, the ECL signal amounted to 355 in [34], 404 in test [35] and 369 in test [36].
